Columns and labels:
[1] = biological target: T1, CD24裸肽 (CD24 naked peptide) (human, UniProt P25063 27-59, limits assumed); assay: SPR, Biacore X100; antibody captured by anti-human IgG(Fc) on a CM5 chip, CD24 naked peptide as analyte (100-0.39 nM), 25 C
T1 construct: also called 抗原CD24
T1 peptide (looked up): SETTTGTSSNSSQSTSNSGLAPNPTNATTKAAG

[2] = biological target: T2, 重组人rNKG2D分子 (recombinant human NKG2D) (human, UniProt P26718 78-216, limits assumed); assay: SPR, Biacore X100; cG7-MICA captured by anti-human IgG(Fc) on a CM5 chip, recombinant human rNKG2D as analyte (100-6.25 nM)
T2 construct: Used as SPR analyte; source and construct are not described
T2 sequence (looked up): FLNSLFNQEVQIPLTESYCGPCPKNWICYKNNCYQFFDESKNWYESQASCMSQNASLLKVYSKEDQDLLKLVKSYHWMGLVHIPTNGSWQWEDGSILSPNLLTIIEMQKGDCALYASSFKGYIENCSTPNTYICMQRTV

B1: 靶向CD24的双特异性抗体cG7-MICA (anti-CD24 humanized chimeric antibody cG7 fused at the heavy chain C-terminus to the human MICA extracellular domains 1-3) (bispecific antibody)
heavy: not shown
light: DIVMTQTPLSLSVTIGQPASISCKSSQSLLHSDGKTYLNWLLQRPGQSPKRLIYLVSKLDSGVPDRFTGSGSGTDFTLKVSRVEAEDLGVYYCWQGAHFPYTFGGGTKLEIKVDTVAAPSVFIFPPSDEQLKSGTASVVCLLNNFYPREAKVQWKVDNALQSGNSQESVTEQDSKDSTYSLSSTLTLSKADYEKHKVYACEVTHQGLSSPVTKSFNRGEC
notes: Expressed in CHO-s, purified on Protein A, about 210 kD
B1 gave a Kd [1] of 0.242 nM, a koff [1] of 0.000339 s⁻¹ and a kon [1] of 1.4e+06 M⁻¹ s⁻¹. The Kd [2] was 576 nM, the koff [2] was 0.0015 s⁻¹ and the kon [2] was 2620 M⁻¹ s⁻¹.

B2: 抗CD24人源化嵌合抗体cG7 (antibody, V domains shown)
VH: QVKLEESGGGLVQPGGSLKISCAASGFDFSRYWMSWVRQAPGKGLEWIGEINPDSSTINYTPSLRDKFIISRDNAKNTLYLQMSKVRYEDTSLYYCARQGDYWGQGTSVTVSS
VL: not shown
B2 showed a Kd [1] of 0.191 nM, a koff [1] of 0.000336 s⁻¹ and a kon [1] of 1.76e+06 M⁻¹ s⁻¹.
